B1: 46 (nucleic acid, listed as Mus musculus)
chain: AATCTAGAATGGTGTCCACTAGCATCCCGGAGGTTAAAGCTCTCCGCAGCTCAGTCTCTGACTATGGGAACTATGATATCATAGTCCGGCATTACAACTACACAGGCAAGTTGAACATCGGGGCGGAGAAGGACCATGGCATTAAACTGACTTCAGTGGTGTTCATTCTCATCTGCTGCTTCATCATCCTAGAGAATATATTTGTCTTGCTAACTATTTGGAAAACCAAGAAGTTCCACCGGCCCATGTACTATTTCATAGGCAACCTAGCCCTCTCGGACCTATTAGCAGGCGTGGCTTACACAGCTAACCTGCTGTTGTCTGGGGCCACCACTTACAAGCTCACACCTGCCCAGTGGTTTCTGCGGGAAGGGAGTATGTTTGTGGCTCTCTCTGCATCAGTCTTCAGCCTCCTTGCCATCGCCATTGAGCGCTACATCACCATGCTGAAGATGAAACTACACAACGGGAGCAACAGCTCGCGCTCCTTTCTGCTGATCAGCGCCTGCTGGGTCATCTCCCTCATCCTGGGGGGCCTGCCCATCATGGGCTGGAACTGCATCAGCTCGCTGTCTAGCTGCTCCACCGTGCTCCCGCTCTACCACAAGCACTATATTCTCTTCTGCACCACCGTCTTCACTCTGCTCCTGCTTTCCATCGTCATCCTCTACTGCAGGATCTACTCCTTGGTCAGGACTCGAAGCCGCCGCCTGACCTTCCGCAAGAACATCTCCAAGGCCAGTCGCAGTTCTGAGAAGTCTCTGGCCTTGCTGAAGACGGTGATCATTGTCTTGAGTGTCTTCATTGCCTGCTGGGCCCCTCTCTTCATCCTACTACTGTTAGATGTGGGCTGCAAGGCGAAGACCTGTGACATCCTGTACAAAGCAGAGTACTTCCTGGTTCTGGCTGTGCTGAACTCAGGTACCAACCCCATCATCTACACTCTGACCAACAAGGAGATGCGCCGGGCCTTCATCCGGATCGTATCTTGTTGCAAATGCCCCAACGGAGACTCTGCTGGCAAATTCAAGAGGCCCATCATCCCAGGCATGGAATTTAGCCGCAGCAAATCAGACAACTCCTCTCACCCCCAGAAGGACGATGGGGACAACCCAGAGACCATTATGTCGTCTGGAAACGTCAATTCTTCTTCCACTAGTAA
B2: 24 (nucleic acid, listed as Mus musculus)
chain: CGATCGATATGGCCAGCCCGCTGCGCTCCTTGCTGTTCCTGCTGGCCGTCCTGGCCGTGGCCTGGGCGGCGACCCCAAAACAAGGCCCGCGAATGTTGGGAGCCCCGGAGGAGGCAGATGCCAATGAGGAAGGCGTGCGGCGAGCGTTGGACTTCGCTGTGAGCGAGTACAACAAGGGCAGCAACGATGCGTACCACAGCCGCGCCATACAGGTGGTGAGAGCTCGTAAGCAGCTCGTGGCTGGAGTGAACTATTTTTTGGATGTGGAGATGGGCCGAACTACATGTACCAAGTCCCAGACAAATTTGACTGACTGTCCTTTCCATGACCAGCCCCATCTGATGAGGAAGGCACTCTGCTCCTTCCAGATCTACAGCGTGCCCTGGAAAGGCACACACTCCCTGACAAAATTCAGCTGCAAAAATGCCGCGGCCGCTT
B3: 7 (nucleic acid, listed as Mus musculus)
chain: AATCTAGAATGAAGTCCTGCGGCCTTTTACCTTTCACGGTGCTCCTTGCTCTGGGGATCCTGGCACCCTGGACTGTGGAAGGAGGCAAAAATGATGCTATCAAAATCGGAGCCTGCCCTGCTAAAAAGCCTGCCCAGTGCCTTAAGCTTGAGAAGCCACAATGCCGTACTGACTGGGAGTGCCCGGGAAAGCAGAGGTGCTGCCAAGATGCTTGCGGTTCCAAGTGCGTGAATCCTGTTCCCATTCGCAAACCAGTGTGGAGGAAGCCTGGGAGGTGCGTCAAAACTCAGGCAAGATGTATGATGCTTAACCCTCCCAATGTCTGCCAGAGGGACGGGCAGTGTGACGGCAAATACAAGTGCTGTGAGGGTATATGTGGGAAAGTCTGCCTGCCCCCGATGACTAGTAA
B4: 48 (nucleic acid, listed as Mus musculus)
chain: AATCTAGAATGGCAGCTGCCTCTACTTCCAGCCCTGTAATTTCACAGCCCCAGTTCACAGCCATGAACGAACAACAGTGCTTCTACAATGAGTCTATCGCCTTCTTTTATAACCGGAGTGGGAAATATCTAGCCACAGAATGGAACACAGTGAGCAAGCTGGTGATGGGACTGGGCATCACTGTTTGCGTGTTCATCATGTTGGCCAATCTCCTGGTCATGGTGGCAATCTACGTCAACCGCCGCTTCCATTTCCCTATTTATTACTTGATGGCCAACCTGGCTGCTGCAGACTTCTTCGCTGGATTGGCCTACTTCTACCTGATGTTCAATACAGGACCTAATACCCGGAGACTGACTGTTAGCACGTGGCTCCTCCGGCAGGGCCTCATTGACACCAGCCTGACAGCTTCTGTGGCCAACCTGCTGGCTATTGCTATCGAGAGGCACATCACGGTTTTCCGCATGCAGCTCCATACACGAATGAGCAACCGGCGCGTGGTGGTGGTGATTGTAGTCATCTGGACTATGGCCATTGTGATGGGTGCTATACCCAGTGTGGGCTGGAACTGCATCTGTGATATCGATCACTGTTCCAACATGGCACCCCTCTACAGTGACTCCTACTTAGTCTTCTGGGCCATTTTCAACCTGGTGACCTTTGTGGTCATGGTGGTTCTCTACGCTCACATCTTTGGCTATGTTCGCCAGAGGACTATGAGGATGTCTCGGCATAGTTCTGGACCCAGGAGGAATCGGGACACCATGATGAGCCTTCTGAAGACTGTGGTCATTGTGCTTGGTGCCTTTATTGTCTGCTGGACTCCGGGATTGGTCTTGTTATTGCTGGATGTGTGCTGCCCGCAGTGCGATGTCCTGGCCTATGAGAAGTTCTTCCTCCTCCTGGCCGAGTTCAACTCTGCTATGAACCCCATCATCTACTCCTACCGCGACAAAGAGATGAGCGCCACCTTCAGGCAGATCCTGTGTTGCCAGCGCAACGAGAACCCTAATGGCCCCACGGAAGGCTCTGACCGCTCTGCCTCCTCCCTCAACCACACCATTCTGGCTGGAGTTCACAGCAACGACCACTCTGTGGTTACTAGTAA
B5: 65 (nucleic acid, listed as Mus musculus)
chain: AATCTAGAATGGAGGCCAGAGCTCAGAGTGGCAACGGGTCGCAGCCTTTGCTGCAGACAGCCCATGACAGTGGCAGGCAGCGCGGGGAGCCGGATCCAAGAGATGCCCTTACCCAGCAGGTACACGTCTTGTCTCTGGATCAGATCAGAGCCATCCGAAACACCAATGAGTACACAGAGGGCCCTACTGTGGTCCCAAGACCTGGGCTCAAGCCTGCTCCTCGCCCCTCCACTCAGCACAAACATGAAAGACTCCACGGTCTGCCGGAGCACCGCCAGCCTCCCAGGCTCCAGCCCTCGCAGGTCCATTCTTCACGGGCCCCTCTGTCCAGGTCCATCAGCACTGTCAGCTCAGGGTCTCGGAGCAGTACAAGGACAAGTACCAGCAGCAGCTCCTCGGAACAGAGACTGTTAGGACCGTCCTTCTCCCACGGGCCTGCTGCTGCTGATGGAATAATCCGAGTGCAGCCTAAATCGGAGCTCAAGCCAGGTGACGTTAAGCCACTGAGCAAGGATGATTTGGGTCTGCATGCCTACAGGTGTGAGGACTGCGGCAAGTGCAAGTGTAAGGAGTGCACCTACCCGAGGCCCCTGCCGTCGGACTGGATCTGTGACAAGCAGTGCCTCTGCTCAGCCCAGAACGTCATTGACTATGGGACTTGTGTGTGCTGTGTGAAAGGTCTCTTCTATCACTGCTCCAATGACGATGAGGACAATTGTGCTGACAACCCGTGCTCTTGCAGCCAGTCCCATTGTTGTACGCGATGGTCAGCGATGGGAGTCATGTCTCTCTTTTTGCCTTGTTTATGGTGTTACCTTCCAGCCAAGGGTTGCCTTAAATTGTGCCAGGGGTGTTATGACCGAGTGAACAGGCCGGGTTGTCGTTGTAAAAACTCAAATACAGTTTGCTGCAAAGTTCCCACTGTCCCCCCTAGGAACTTTGAAAAACCAACAACTAGTAAAAGGGCGAATTCCAGCAC

What follows are molecules tested on C3H10T1/2 cells (assay: Transient over-expression of candidate genes, cooperation with BMP2 by measurement of alkaline phosphatase). Conditions: alkaline phosphatase.
Type: cell-based, mouse
Set-up: key: +: positive or negative cooperation with BMP2; −: positive or negative cooperation with BMP2
Description: Mouse cell lines representing different stages of osteoblastic differentiation, C2C12, C2H10T1/2, ST2 and MC3T3-E1, were grown in the presence of agents capable of the induction of osteoblastic differentiation in vitro such as BMP2 and Sonic Hedgehog or in the presence of TGF beta (negative control) or with serum alone. Primary cells derived from mouse calvaria were also cultured for 0, 2, 7 14 and 21 days and RNA prepared for each time point. For example, C3H10T ½ and C2C12 can be obtained from the ATCC (Manassas, Va., USA) under the collection numbers CCL-226 and CRL-1772, respectively.
The candidates genes are cloned in expression vectors and their ability to express a protein of the expected size verified by COS cells transient transfection. The genes are then transfected in C3H10T1/2 cells and/or C2C12 cells (transient over-expression) and positive or negative cooperation with BMP2 is evaluated by the measurement of alkaline phosphatase (enzymatic assay and TaqMan) at 48 hours. Controls of positive cooperation, recombinant Sonic Hedgehog, or negative cooperation, recombinant Noggin, are included in each test.

Molecule	Validation in vitro (coop over BMP2) C3H10T1/2
B1	+
B2	−
B3	+
B4	+
B5	+

Same assay, conditions: alkaline phosphatase at 48 hours

Molecule	Validation in C2H10T1/2 (coop over BMP2)
B1	+ coop over BMP2
B3	+ coop over BMP2
B4	+ coop over BMP2
B5	+ coop over BMP2

Reference: US20040265808A1, “Genes involved in osteogenesis, and methods of use” (priority 2001, published 2004)
